Changes are numbered by the printed parent chain. Names and notes keep the numbering of the source. Marks after values point to notes of the source that are not given here.
T1: human gamma glutamyl hydrolase (hGH) (Homo sapiens, UniProt Q92820, C134A)
T1 construct: A cDNA encoding the 294 amino acid mature form of hGH protein with an N-terminal methionine preceding the first arginine residue; added N-terminal methionine (start codon) (N); made in house; host or cells: E. coli BL21(DE3)pLysS, pET-24a (pET-hGH)
T1 sequence (Q92820 with tags, fused parts or gaps C134A): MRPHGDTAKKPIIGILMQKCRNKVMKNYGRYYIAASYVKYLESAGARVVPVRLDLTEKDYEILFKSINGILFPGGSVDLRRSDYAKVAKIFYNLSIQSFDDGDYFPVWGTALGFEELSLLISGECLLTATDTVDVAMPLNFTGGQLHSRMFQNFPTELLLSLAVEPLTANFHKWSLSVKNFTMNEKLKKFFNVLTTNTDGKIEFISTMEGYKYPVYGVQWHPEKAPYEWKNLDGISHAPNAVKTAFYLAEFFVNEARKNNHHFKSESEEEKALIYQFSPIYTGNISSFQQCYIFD

T2: human gamma glutamyl hydrolase (hGH) (Homo sapiens, UniProt Q92820, C134A)
T2 construct: A cDNA encoding the 294 amino acid mature form of hGH protein with an N-terminal methionine preceding the first arginine residue; added N-terminal methionine (start codon) (N); made in house; host or cells: E. coli BL21(DE3)pLysS, pET-24a (pET-hGH)
T2 sequence (Q92820 25-318 C134A): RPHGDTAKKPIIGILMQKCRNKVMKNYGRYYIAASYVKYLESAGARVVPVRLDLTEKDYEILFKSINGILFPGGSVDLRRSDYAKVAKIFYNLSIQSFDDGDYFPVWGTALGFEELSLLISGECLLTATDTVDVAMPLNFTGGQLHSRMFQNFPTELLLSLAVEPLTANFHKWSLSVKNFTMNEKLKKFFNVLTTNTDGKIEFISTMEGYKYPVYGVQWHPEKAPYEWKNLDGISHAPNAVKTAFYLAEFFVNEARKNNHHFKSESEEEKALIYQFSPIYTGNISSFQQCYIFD

B1: C110A: hGH variant with cysteine 110 replaced by alanine (protein)
chain: T2 sequence (Q92820 25-318 C134A) with K242N, T243P, N258K
B2: C124A: hGH variant with cysteine 124 replaced by alanine (protein)
chain: T2 sequence (Q92820 25-318 C134A) with A110C, C124A, K242N, T243P, N258K
B3: Glu222Ala: hGH mutant with Glu 222 changed to Ala, expressed in the baculovirus system (protein)
chain: T2 sequence (Q92820 25-318 C134A) with A110C, E222A, K242N, T243P, N258K
B4: C19A: hGH variant with cysteine 19 replaced by alanine (protein)
chain: T2 sequence (Q92820 25-318 C134A) with C19A, A110C, K242N, T243P, N258K
B5: Wildtype: mature human gamma glutamyl hydrolase (SEQ ID NO:1) with N-terminal methionine, expressed in E. coli (protein, listed as Homo sapiens)
chain: T2 sequence (Q92820 25-318 C134A) with A110C, K242N, T243P, N258K
modifications: N-terminal methionine
B6: C290A: hGH variant with cysteine 290 replaced by alanine (protein)
chain: T2 sequence (Q92820 25-318 C134A) with A110C, K242N, T243P, N258K, C290A
B7: H220A: hGH mutant with His 220 changed to Ala, expressed in the baculovirus system (protein)
chain: T2 sequence (Q92820 25-318 C134A) with A110C, H220A, K242N, T243P, N258K
B8: His171Asn: hGH mutant with His 171 changed to Asn, expressed in the baculovirus system (protein)
chain: T2 sequence (Q92820 25-318 C134A) with A110C, H171N, K242N, T243P, N258K

Tests used:
[1] = system: wildtype, C19A, C124A and C290A hGH proteins; conditions: 0.5 mM iodoacetate for 60 minutes
Procedure: hGH activity in chromatography fractions was measured with 4-NH2-10-CH3PteGlu5 (Schirk Labs, Jona, Switzerland) as previously described (Rhee et al. 1998). The specific activities and reaction kinetics of hGH were determined using varying concentrations of 4-NH2-10-CH3PteGlu2 as substrate (Schirk Labs). Km and Vmax were determined by the method of Hanes (Price and Stevens 1989) with the best fit line calculated using Excel (Microsoft).

[2] = system: human gamma glutamyl hydrolase (hGH); test: hGH activity assay with 4-NH2-10-CH3PteGlu2 as substrate (Km, Vmax, specific activity) of E. coli-expressed purified proteins; type: biochemical; conditions: for Specific activity (nmol 4-NH2-10-CH3PteGlu2 hydrolyzed/min/mg protein): 200 μM 4-NH2-10-CH3PteGlu2 for 5 minutes; for Specific activity (nmol 4-NH2-10-CH3PteGlu2 hydrolyzed/min/mg protein) / Km / Vmax (nmol 4-NH2-10-CH3PteGlu2 hydrolyzed/min/μg protein): mean ± SD of 3 experiments; for hGH activity (in words): purified E. coli-expressed proteins; for Km: substrate 4-NH2-10-CH3PteGlu2, variable concentrations; for Vmax (nmol 4-NH2-10-CH3PteGlu2 hydrolyzed/min/μg protein): variable 4-NH2-10-CH3PteGlu2 concentrations
Procedure: (§1) Mutant plasmids were used to transform E. colistrain BL21(DE3)pLysS to kanamycin resistance. Cultures (20 ml) were grown for 16 hours at 37° C., 225 rpm in tryptone-phosphate broth (Moore et al. 1993), containing 30 μg/ml kanamycin and 34 μg/ml chloramphenicol. An aliquot (6 ml) of this culture was used to inoculate 500 ml of the same medium. Cultures were incubated at 27° C., 225 rpm until the OD600nm was 0.5-0.6. Isopropyl β-D-thiogalactoside (IPTG) was added to a final concentration of 1 mM and cultures were incubated for a further 3 hours. Cells were harvested by centrifugation and stored at −80° C. Cells from 1 liter of broth were resuspended in 50 ml of 50 mM Tris/HCl pH 7.5 buffer containing 500 mM NaCl and Complete protease inhibitor cocktail (Boehringer Mannheim, Indianapolis, Ind.). The mixture was sonicated and clarified by centrifugation at 20,000 g for 30 minutes at 4° C. A 20-60% ammonium sulfate precipitate was resuspended in 50 mM sodium acetate, pH 5.8, 1 mM octyl-β-D-glucoside (OBG) and 5% glycerol (buffer A). After dialysis at 4° C. against buffer A and clarification by centrifugation at 30,000 g, 4° C. for 120 minutes, the dialysate was applied in two aliquots to a Protein Pak SP colummn (1.0 cm×10 cm, Waters Division of Millipore Corp., Milford, Mass.) equilibrated in buffer A. The protein was eluted (1 ml/min) with a linear gradient in buffer A of 0 to 1M NaCl over 60 minutes. Fractions were assayed for hGH activity or for hGH protein by Western blot. Fractions containing hGH were pooled and frozen at −80° C. Wildtype hGH and the C19A, C110A, and C290A mutants eluted as two peaks whereas the C124A mutant eluted as a single peak coincident with the first peak for the other hGH proteins. […] There was 8-10 times more hGH protein in peak 1 than in peak 2. A statistically significant amount (40-82%) of enzyme activity of proteins purified on the SP column was lost when stored either at 4° C. or at −80° C. Thawed aliquots of peak 1 were incubated for 2 hours at 4° C. with 2 ml of pHMB agarose (0.8 μmole/ml agarose) (Sigma Chemical, St. Louis, Mo.) equilibrated in 50 mM sodium acetate pH 5.8, 20 mM OBG, 500 mM NaCl (buffer B). The matrix was poured into a column (0.75 cm×4.5 cm) and washed with buffer B. hGH protein was eluted with buffer B containing additionally 10 mM dithiothreitol and 50 mM β-mercaptoethanol. EDTA (1 mM final) was added to each fraction to inhibit remaining proteases. Fractions containing hGH were pooled and stored at −80° C.
(§2) Km and Vmax activities were measured using variable 4-NH2-10-CH3PteGlu2 substrate concentrations. Specific activities were measured using 200 μM 4-NH2-10-CH3PteGlu2 for 5 minutes.

[3] = target: T1, human gamma glutamyl hydrolase (hGH); test: as above; type: biochemical; conditions: assayed with either 4-NH2-10-CH3PteGlu2 or the better substrate 4-NH2-10-CH3PteGlu
Procedure: as §1, §2

[4] = system: human gamma glutamyl hydrolase (hGH); test: Activity of baculovirus-expressed hGH mutants on methotrexate polyglutamates; type: biochemical; conditions: mutants expressed in the baculovirus system
Description: This model for the active site of hGH has been tested by preparing the Cys110Ala, His220Ala, Glu222Ala, His171Ala, and His171Asn mutants of hGH. The mutants were expressed in the baculovirus system used for active hGH to facilitate the rapid expression and purification of the proteins. The mutant proteins were characterized for activity on methotrexate polyglutamates. […] The role of His171 in hGH has been examined by preparing the mutant His171Ala and the more conservative mutation His171Asn.

[5] = target: T2, human gamma glutamyl hydrolase (hGH); test: hGH activity in chromatography fractions measured with 4-NH2-10-CH3PteGlu5; type: biochemical; conditions: substrate 4-NH2-10-CH3PteGlu5
Procedure: Mutant plasmids were used to transform E. colistrain BL21(DE3)pLysS to kanamycin resistance. Cultures (20 ml) were grown for 16 hours at 37° C., 225 rpm in tryptone-phosphate broth (Moore et al. 1993), containing 30 μg/ml kanamycin and 34 μg/ml chloramphenicol. An aliquot (6 ml) of this culture was used to inoculate 500 ml of the same medium. Cultures were incubated at 27° C., 225 rpm until the OD600nm was 0.5-0.6. Isopropyl β-D-thiogalactoside (IPTG) was added to a final concentration of 1 mM and cultures were incubated for a further 3 hours. Cells were harvested by centrifugation and stored at −80° C. Cells from 1 liter of broth were resuspended in 50 ml of 50 mM Tris/HCl pH 7.5 buffer containing 500 mM NaCl and Complete protease inhibitor cocktail (Boehringer Mannheim, Indianapolis, Ind.). The mixture was sonicated and clarified by centrifugation at 20,000 g for 30 minutes at 4° C. A 20-60% ammonium sulfate precipitate was resuspended in 50 mM sodium acetate, pH 5.8, 1 mM octyl-β-D-glucoside (OBG) and 5% glycerol (buffer A). […]

Molecule	Specific activity (nmol 4-NH2-10-CH3PteGlu2 hydrolyzed/min/mg protein) [2]	hGH activity (in words) [2]	Activity on methotrexate polyglutamates [4]	Km [2]	Vmax (nmol 4-NH2-10-CH3PteGlu2 hydrolyzed/min/μg protein) [2]	other results
O=C(O)CI [iodoacetate]						Reduction of hGH activity by iodoacetate [1]: 70-94%
B1	no activity	no activity	inactive			Activity relative to wildtype enzyme [3]: less than 0.01 % of wildtype enzyme; hGH activity in SP cation exchange column fractions [5]: no fractions contained hGH activity
B2	725 ± 79^a nmol 4-NH2-10-CH3PteGlu2 hydrolyzed/min/mg protein	had activity		28.5 ± 3.7 µM	1.0 ± 0.1 nmol 4-NH2-10-CH3PteGlu2 hydro	
B3			greatly reduced activity			
B4	1000 ± 72^a nmol 4-NH2-10-CH3PteGlu2 hydrolyzed/min/mg protein	had activity		18.1 ± 0.4 µM	1.1 ± 0.3 nmol 4-NH2-10-CH3PteGlu2 hydro	
B5	1913 ± 32 nmol 4-NH2-10-CH3PteGlu2 hydrolyzed/min/mg protein	had activity		55.2 ± 8.4 µM	2.7 ± 0.9 nmol 4-NH2-10-CH3PteGlu2 hydro	
B6	1406 ± 463 nmol 4-NH2-10-CH3PteGlu2 hydrolyzed/min/mg protein	had activity		19.5 ± 8.6 µM	1.9 ± 0.4 nmol 4-NH2-10-CH3PteGlu2 hydro	
B7			inactive			
B8						Activity on methotrexate tetraglutamate [4]: inactive
